Data published in patent EP2032607B1.

What was measured:
[1] = target: activated FIX-albumin fusion protein with cleavable linker 1088/797 (human) (UniProt P00740); assay: cell-based or functional assay
[2] = target: activated FIX-albumin fusion protein with non-cleavable linker 980/797 (human) (UniProt P00740); assay: cell-based or functional assay

With “antithrombin III (from UniProt P01008 33-464)” the clotting time (naPTT) after 120 min incubation with AT [1] was 540 s, the clotting time (naPTT), control with AT but without incubation [1] was 210 s and the factor of increase in clotting time (naPTT) after 120 min incubation with AT [1] was 2.57 x. The clotting time (naPTT) after 120 min incubation with AT [2] was 411 s and the clotting time (naPTT), control with AT but without incubation [2] was 196 s.
